Experimental data reported in patent US20260266848A1, “COMPOSITIONS AND METHODS FOR DIAGNOSING AND TREATING DYSTONIA” (Duke University, priority 2023, published 2026).
Read-outs that look alike come from different tables or passages of the source.

B1: Pdia4 (protein, UniProt P08003 21-638, looked up)
Protein disulfide-isomerase A4: AASAGDAHEDTSDTENATEEEEEEDDDDLEVKEENGVWVLNDGNFDNFVADKDTVLLEFYAPWCGHCKQFAPEYEKIASTLKDNDPPIAVAKIDATSASMLASKFDVSGYPTIKILKKGQAVDYDGSRTQEEIVAKVREVSQPDWTPPPEVTLSLTKDNFDDVVNNADIILVEFYAPWCGHCKKLAPEYEKAAKELSKRSPPIPLAKVDATEQTDLAKRFDVSGYPTLKIFRKGRPFDYNGPREKYGIVDYMIEQSGPPSKEILTLKQVQEFLKDGDDVVIIGLFQGDGDPAYLQYQDAANNLREDYKFHHTFSPEIAKFLKVSLGKLVLTHPEKFQSKYEPRFHVMDVQGSTEASAIKDYVVKHALPLVGHRKTSNDAKRYSKRPLVVVYYSVDFSFDYRAATQFWRNKVLEVAKDFPEYTFAIADEEDYATEVKDLGLSESGEDVNAAILDESGKKFAMEPEEFDSDTLREFVTAFKKGKLKPVIKSQPVPKNNKGPVKVVVGKTFDAIVMDPKKDVLIEFYAPWCGHCKQLEPIYTSLGKKYKGQKDLVIAKMDATANDITNDQYKVEGFPTIYFAPSGDKKNPIKFEGGNRDLEHLSKFIDEHATKRSRTKEEL
B2: Srsf7 (protein, UniProt Q8BL97 1-267, looked up)
Serine/arginine-rich splicing …: MRSSARGRPLQAATAFFLSLFFFLRRFERGFWLWGGDSETKVYVGNLGTGAGKGELERAFSYYGPLRTVWIARNPPGFAFVEFEDPRDAEDAVRGLDGKVICGSRVRVELSTGMPRRSRFDRPPARRPFDPNDRCYECGEKGHYAYDCHRYSRRRRSRSRSRSHSRSRGRRYSRSRSRSRGRRSRSASPRRSRSVSLRRSRSASLRRSRSGSIIGSRYFQSRSRSRSRSRSISRPRSSRSKSRSPSPKRSRSPSGSPHRSASPERMD
B3: Ssb (protein, UniProt P32067 1-415, looked up)
Lupus La protein homolog: MAENGDNEKMTALEAKICHQIEYYFGDFNLPRDKFLKEQIKLDEGWVPLETMIKFNRLNRLTTDFNVIVQALSKSKAKLMEVSADKTKIRRSPSRPLPEVTDEYKNDVKNRSVYIKGFPTDATLDDIKEWLDDKGQILNIQMRRTLHKTFKGSIFAVFDSIQSAKKFVEIPGQKYKDTNLLILFKEDYFAKKNEERKQSKVEAKLKAKQEHEGRHKPGSTETRALEGKMGCLLKFSGDLDDQTCREDLHFLFSNHGEIKWVDFARGAKEGIILFKEKAKEALEKARNANNGNLLLRNKKVTWKVLEGHAEKEALKKITDDQQESLNKWKSKGGHAGGRFKGSHVFTAARRFKGKGKGNRPGYAGAPKGRGQFHGRRTRFDDDDRRRGPMKRGRDGRDREEPASKHKKRENGARDK
B4: Ipo7 (protein, UniProt Q9EPL8 1-1038, looked up)
Importin-7: MDPNTIIEALRGTMDPALREAAERQLNEAHKSLNFVSTLLQITMSEQLDLPVRQAGVIYLKNMITQYWPDREATPGDIAPYTIPEEDRHCIRENIVEAIIHSPELIRVQLTTCIHHIIKHDYPSRWTAIVDKIGFYLQSDNSACWLGILLCLYQLVKNYEYKKPEERSPLVAAMQHFLPVLKDRFIQLLSDQSDQSVLIQKQIFKIFYALVQYTLPLELINQQNLTEWVEILKTVVNRDVPNETLQVEEDDRPELPWWKCKKWALHILARLFERYGSPGNVSKEYNEFAEVFLKAFAVGVQQVLLKVLYQYKEKQYMAPRVLQQTLNYINQGVSHALTWKNLKPHIQGIIQDVIFPLMCYTDADEELWQEDPYEYIRMKFDVFEDFISPTTAAQTLLFTACSKRKEVLQKTMGFCYQILTEPNADPRKKDGALHMIGSLAEILLKKKIYKDQMEYMLQNHVFPLFSSELGYMRARACWVLHYFCEVKFKSDQNLQTALELTRRCLIDDREMPVKVEAAIALQVLISNQEKAKEYITPFIRPVMQALLHIIRETENDDLTNVIQKMICEYSEEVTPIAVEMTQHLAMTFNQVIQTGPDEEGSDDKAVTAMGILNTIDTLLSVVEDHKEITQQLEGICLQVIGTVLQQHVLEFYEEIFSLAHSLTCQQVSPQMWQLLPLVFEVFQQDGFDYFTDMMPLLHNYVTVDTDTLLSDTKYLEMIYSMCKKVLTGVAGEDAECHAAKLLEVIILQCKGRGIDQCIPLFVEAALERLTREVKTSELRTMCLQVAIAALYYNPHLLLNTLENLRFPNNVEPVTNHFITQWLNDVDCFLGLHDRKMCVLGLCALIDMEQIPQVLNQVSGQILPAFILLFNGLKRAYACHAEHENDSDDDEDAEDDDETEELGSDEDDIDEDGQEYLEILAKQAGEDGDDEDWEEDDAEETALEGYSTIIDDEDNPVDEYQIFKAIFQTIQNRNPVWYQALTHGLNEEQRKQLQDIATLADQRRAAHESKMIEKHGGYKFSAPVVPSSFNFGGPAPGMN
B5: Cryab (protein, UniProt P23927 1-175, looked up)
Alpha-crystallin B chain: MDIAIHHPWIRRPFFPFHSPSRLFDQFFGEHLLESDLFSTATSLSPFYLRPPSFLRAPSWIDTGLSEMRLEKDRFSVNLDVKHFSPEELKVKVLGDVIEVHGKHEERQDEHGFISREFHRKYRIPADVDPLTITSSLSSDGVLTVNGPRKQVSGPERTIPITREEKPAVAAAPKK
B6: Itgb3 (protein, UniProt O54890 26-787, looked up)
Integrin beta-3: ESNICTTRGVNSCQQCLAVSPVCAWCSDETLSQGSPRCNLKENLLKDNCAPESIEFPVSEAQILEARPLSSKGSGSSAQITQVSPQRIALRLRPDDSKIFSLQVRQVEDYPVDIYYLMDLSFSMKDDLSSIQTLGTKLASQMRKLTSNLRIGFGAFVDKPVSPYMYISPPQAIKNPCYNMKNACLPMFGYKHVLTLTDQVSRFNEEVKKQSVSRNRDAPEGGFDAIMQATVCDEKIGWRNDASHLLVFTTDAKTHIALDGRLAGIVLPNDGHCHIGTDNHYSASTTMDYPSLGLMTEKLSQKNINLIFAVTENVVSLYQNYSELIPGTTVGVLSDDSSNVLQLIVDAYGKIRSKVELEVRDLPEELSLSFNATCLNNEVIPGLKSCVGLKIGDTVSFSIEAKVRGCPQEKEQSFTIKPVGFKDSLTVQVTFDCDCACQAFAQPSSPRCNNGNGTFECGVCRCDQGWLGSMCECSEEDYRPSQQEECSPKEGQPICSQRGECLCGQCVCHSSDFGKITGKYCECDDFSCVRYKGEMCSGHGQCNCGDCVCDSDWTGYYCNCTTRTDTCMSTNGLLCSGRGNCECGSCVCVQPGSYGDTCEKCPTCPDACSFKKECVECKKFNRGTLHEENTCSRYCRDDIEQVKELTDTGKNAVNCTYKNEDDCVVRFQYYEDTSGRAVLYVVEEPECPKGPDILVVLLSVMGAILLIGLATLLIWKLLITIHDRKEFAKFEEERARAKWDTANNPLYKEATSTFTNITYRGT
B7: Esyt1 (protein, UniProt Q3U7R1 1-1092, looked up)
Extended synaptotagmin-1: MEHSPEEGASPEPSGQPPATDSTRDGGSGVPPAGPGAASEALAVLTSFGRRLLVLVPVYLAGAAGLSVGFVLFGLALYLGWRRVRDGKERSLRAARQLLDDEERITAETLYMSHRELPAWVSFPDVEKAEWLNKIVAQVWPFLGQYMEKLLAETVAPAVRGANPHLQTFTFTRVELGEKPLRIIGVKVHPSQRKDQILLDLNVSYVGDVQIDVEVKKYFCKAGVKGMQLHGVLRVILEPLTGDLPIVGAVSMFFIKRPTLDINWTGMTNLLDIPGLSSLSDTMIMDSIAAFLVLPNRLLVPLVPDLQDVAQLRSPLPRGIIRIHLLAARGLSSKDKYVKGLIEGKSDPYALVRVGTQTFCSRVIDEELNPHWGETYEVIVHEVPGQEIEVEVFDKDPDKDDFLGRMKLDVGKVLQAGVLDNWYPLQGGQGQVHLRLEWLSLLPDAEKLDQVLQWNRGITSRPEPPSAAILVVYLDRAQDLPLKKGNKEPNPMVQLSVQDVTRESKATYSTNSPVWEEAFRFFLQDPRSQELDVQVKDDSRALTLGALTLPLARLLTASELTLDQWFQLSSSGPNSRLYMKLVMRILYLDYSEIRFPTVPGAQDWDRESLETGSSVDAPPRPYHTTPNSHFGTENVLRIHVLEAQDLIAKDRFLGGLVKGKSDPYVKLKVAGKSFRTHVVREDLNPRWNEVFEVIVTSIPGQELEIEVFDKDLDKDDFLGRYKVSLTTVLNSGFLDEWLTLEDVPSGRLHLRLERLTPRPTAAELEEVLQVNSLIQTQKSSELAAALLSVFLERAEDLPLRKGTKPPSPYATITVGETSHKTKTVSQSSAPVWEESASFLIRKPHAESLELQVRGEGTGTLGSVSLPLSELLQEDQLCLDHWFALSGQGQVLMRAQLGILVSQHSGVEAHSHSYSHSHSSSSLNDEPEALGGPTHPASPVLEVRHRLTHGDSPSEAPVGPLGQVKLTVWYHSDEQKLISIIHSCRALRQNGRDLPDPYVSVLLLPDKNRSTKRKTPQKKRTLNPEFNERFEWDLPLDGTLRRKLDVSVKSNSSFMSRERELLGKVQLDLAEIDLSQGAAQWYDLMDDRDKGGS

Experiments:
DYT-TOR1A MEF EVs = assay: Quantitative LC-MS/MS proteomics of EVs from drug-treated DYT-TOR1A MEF cultures (ritonavir, salubrinal); assay type: cell-based, mouse; parameters: key to RTV Corrective Direction / RTV Corrective Direction, Grwd1 / RTV Corrective Direction, Srrm2 / RTV Corrective Direction, Rbm17 / RTV Corrective Direction, Dcaf8 / RTV Corrective Direction, Edil3 / RTV Corrective Direction, Timp3 / RTV Corrective Direction, Heatr3 / RTV Corrective Direction, Brd4 / RTV Corrective Direction, P3h4 / RTV Corrective Direction, Pacsin3 / RTV Corrective Direction, Naa50 / RTV Corrective Direction, Lpar6 / RTV Corrective Direction, Ndrg1 / RTV Corrective Direction, Kntc1 / RTV Corrective Direction, Cdk11b / RTV Corrective Direction, Sumo1 / RTV Corrective Direction, Lsm4 / RTV Corrective Direction, Hmga2 / RTV Corrective Direction, Cstf1 / RTV Corrective Direction, Tes / RTV Corrective Direction, Sbno1 / RTV Corrective Direction, Unc119b / RTV Corrective Direction, Cfdp1 / RTV Corrective Direction, Sec61b: YES = protein abundance effect opposite to DYT/WT; conditions: for DYT + RTV/DYT Cohen's d: ritonavir (RTV)-treated DYT vs DYT
WT MEF EVs = assay: Quantitative LC-MS/MS proteomics of EVs from ISRIB-treated WT MEF cultures; assay type: cell-based, mouse; conditions: EV protein abundance, ISRIB-treated WT vs WT
[1] = EV protein abundance, DYT + RTV (ritonavir) vs DYT, direction compared with DYT/WT

Molecule | RTV Corrective Direction (DYT-TOR1A MEF EVs; [1]) | DYT + RTV/DYT Cohen's d (DYT-TOR1A MEF EVs; EV protein abundance) | WT + ISRIB/WT Cohen's d (WT MEF EVs) | RTV Corrective Direction (DYT-TOR1A MEF EVs)
B1 | YES | 2.25 | 1.37 | –
B2 | YES | 2.91 | 0.13 | –
B3 | – | 2.79 | 0.41 | YES
B4 | YES | 2.25 | 0.30 | –
B5 | YES | 1.11 | 0.39 | –
B6 | YES | 1.96 | 0.14 | –
B7 | YES | 1.25 | 0.18 | –
